Data published in IntAct's records for PubMed 22842346.

B1: High mobility group protein B1 (Mus musculus), P63158 (parent)
chain: MGKGDPKKPRGKMSSYAFFVQTCREEHKKKHPDASVNFSEFSKKCSERWKTMSAKEKGKFEDMAKADKARYEREMKTYIPPKGETKKKFKDPNAPKRPPSAFFLFCSEYRPKIKGEHPGLSIGDVAKKLGEMWNNTAADDKQPYEKKAAKLKEKYEKDIAAYRAKGKPDAAKKGVVKAEKSKKKKEEEDDEEDEEDEEEEEEEEDEDEEEDDDDE

Variants of: B1
Conditions: with havr2_mouse Havcr2, Q8VIM0
Chain of havr2_mouse Havcr2, Q8VIM0 (Q8VIM0 whole entry): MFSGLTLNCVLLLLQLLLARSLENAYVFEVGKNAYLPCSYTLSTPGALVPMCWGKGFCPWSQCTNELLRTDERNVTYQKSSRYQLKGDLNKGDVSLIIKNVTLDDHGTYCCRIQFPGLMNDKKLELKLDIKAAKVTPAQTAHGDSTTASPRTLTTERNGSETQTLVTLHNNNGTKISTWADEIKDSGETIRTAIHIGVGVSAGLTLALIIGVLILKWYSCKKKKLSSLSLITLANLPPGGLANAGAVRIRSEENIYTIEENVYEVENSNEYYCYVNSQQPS

effect of a mutation on the interaction | Variant
decreasing interaction | D62A
